The values that follow come from patent US10562935B2, “Stapled peptides and uses thereof” (London Health Sciences Centre Research Inc., priority 2015, dated 2020).

Where a SMILES comes first, the peptide text is derived from it. Bridges are numbered along the chain shown (N, C = ends).

One data set in a line: circular dichroism. Particulars: water (methods paragraph says 0.1 M phosphate; tables say water); pH ns; 20 °C; 0.5 mM. A general note: Circular dichroism is widely used to follow secondary structure.
Data set [1] is described as follows: Circular dichroism (CD) spectroscopy of linear and stapled peptides in water or 40% TFE/water (Example 3). Format: physicochemical. The note with it: for [0]208 mean residue ellipticity: λ = 208 nm; for [0]222 mean residue ellipticity: λ = 222 nm. Here is the method:
CD spectra were obtained on a Jasco J-810 spectropolarimeter and recorded in the range of 180-260 nm. Peptide solutions were prepared with a 0.1M phosphate buffer solution to a concentration of 0.5 mM. The measurements were performed in quartz cuvettes with a path length of 1 mm and a scanning speed of 10-50 nm/min. Five individual data points were averaged by the instrument in order to obtain the reported CD spectrum. The measurements were carried out at 20° C. A blank solution of 0.1M phosphate buffer solution was run before every measurement in order to baseline correct for any UV-interference observed from the buffer.
CD data for the 14- and 15-mer peptides containing HABD2 (VSKLRSQLVKRKQN, SEQ ID NO: 2) and HABD1 (NLKQKIKHVVKLKDE, SEQ ID NO: 4) and cyclized derivatives thereof in water or 40% TFE/water are provided below in Tables 8 (water) and 9 (40% TFE/water). Tables 8 and 9 provide the mean residue ellipicity ([θ] deg cm^2 dmol^−1) at λ=222 and 208 nm for each peptide and ratios of ellipticities at 222/208. Each of the peptides was acetylated at its amino terminus and amidated at its carboxy terminus.
CD data for linear peptides having the sequences […] (SEQ ID NO: 5) and […] (SEQ ID NO: 6) and cyclized derivatives thereof in water or 40% TFE/water are provided below in Tables 12 (water) and 13 (40% TFE/water). Tables 12 and 13 provide the mean residue ellipicity ([0] deg cm^2 dmol^−1) at λ=222 and 208 nm for each peptide and ratios of ellipticities at 222/208. Each of the peptides was acetylated at its amino terminus and amidated at its carboxy terminus.
Circular Dichroism (CD) spectroscopy is a tool that is used to study the secondary structure characteristics of a compound. Peptides and proteins can fold into organized structures, such as alpha helices and beta sheets, which are the result of complex hydrogen bonding and other interactions between amino acid side chains, as well as adopt a random coil formation, which lacks much of the organization of the other two structures. The CD spectrum of an alpha helix is characterized by two local minima at 208 nm and 222 nm. The ratio of the values of the molar ellipticities at these wavelengths ([θ]222/[θ]208) is a strong indication of the relative helicity of a compound; a compound is more helical when the ratio of these two values approaches 1.0. Synthetic constraints introduced to the peptide backbone can force a peptide chain to increase its helical character. These constraints can be introduced by staples, of varying types, which allow cyclization of the peptide backbone to take place.

Data set [2] can be described thus: Direct HA-binding ELISA of biotinylated peptides on HA coated plates (Example 4). On the set-up: key to HA binding: absorbance (color) read at 450 nm. Here is the method:
Each of these peptides was biotinylated at its amino-terminus, and an AEEA spacer was included to separate the peptide sequence from the biotin molecule.
HA coated plates were purchased (ECHELON). Peptides were dissolved in 2 mM PBS to constant molarity, aliquoted and stored at −20° C. until used in assays. 7 kDa biotin-labeled RHAMM (SEQ ID NO: 1) was synthesized and used as a positive control in these assays. Biotin labeled peptides were added to the HA coated wells (n=3 replicates/peptide) at either 0.8 or 0.08 μM and then incubated with shaking overnight at 4° C. Wells were washed free of excess unbound peptides using 200 μl PBS (4 times). 100 μl of Streptavidin-HRP was then added to each well and the plate was incubated at room temperature for 1 hr. The plate was then washed with 200 μl PBS/well 4 times and TMB Liquid Substrate System for ELISA (Sigma) was added to each well, incubated for 5-10 min at room temperature and color read at 450 nm Plate Reader (BioTek, SYNERGY H4, Hybrid Reader).
Direct HA-binding results for the biotinylated equivalents of compounds 132 and 150-161 are show in FIG. 39, and results for compounds 265-268 and 275-278 are shown in FIG. 40.
On the technique in general: An ELISA detects its analyte on a solid surface through an enzyme-linked reagent.

Data set [3] has as its system RHAMM-overexpressing (LR21) cells. The data set can be described thus: Cell migration assay (Boyden chamber, Chemicon ECM510). Format: cell-based. The note with it: % inhibition relative to positive control. The protocol:
Compounds 132, 133, 150-152, 156-161, 265-269, 275, 277, and 278 were evaluated for their ability to inhibit cell migration. Cell migration assays were performed using Chemicon Assay Kits (ECM510 (Migration); Billerica, Mass., USA) according to the manufacturer's protocol. Briefly, sub-confluent cultures of RHAMM-overexpressing (LR21) cells were serum starved overnight. 7.5×10^4 cells were then plated in the upper chamber of a Boyden chamber. either in the presence or absence of 10 ng/mL of peptide. 30% fetal bovine serum in DMEM was used as the chemo-attractant in the lower chamber. The number of cells that had crossed the membrane after 20 hours was assessed using the CYQUANT GR Dye and lysis buffer solution provided in the kit. Fluorescence was measured with a fluorescent plate reader using a 480/520 nm filter set.
Values are the mean and SDM of n=3 replicates. *p<0.05, **p<0.01. All statistics compare to 30% serum control. In FIGS. 41-43, where bars are labeled with two compound numbers (“133/150” and “135/152”) this means that the data were pooled for the indicated compounds, i.e., for the non-acetylated and acetylated versions of the indicated peptides.

Data set [4] shares this test system. The data set can be described thus: Cell invasion assay (Boyden chamber with MATRIGEL, Chemicon ECM555). Format: cell-based. The note with it: % inhibition relative to positive control; 10 ng/mL of peptide. Here is the method:
Compounds 132, 133, 135, 150-153, 156, 265-269, and 275-278 were evaluated for their ability to inhibit cellular invasion. Invasion assays were performed using Chemicon Assay Kits ECM555 (Invasion); Billerica, Mass., USA) according to the manufacturer's protocol. Invasion assays are performed in an identical manner as the migration assays described above in Example 5, except that cells are required to invade through a layer of extracellular matrix (MATRIGEL) coating the filter that separates the upper and lower Boyden chambers. Briefly, sub-confluent cultures of RHAMM-overexpressing (LR21) cells were serum starved overnight before plating 7.5×10^4 cells in the upper chamber of a Boyden chamber either in the presence or absence of 10 ng/mL of peptide. 30% fetal bovine serum in DMEM was used as the chemo-attractant in the lower chamber. The number of cells that had crossed the membrane after 20 hours was assessed using the CYQUANT® GR Dye and lysis buffer solution provided in the kit. Fluorescence was measured with a fluorescent plate reader using 480/520 nm filter set.
Values the mean and SDM of n=3 replicates. *p<0.05, **p<0.01, ***p<0.001 All statistics compared to 30% serum control. In FIG. 49, where bars are labeled with two compound numbers (“152/135”) this means that the data were pooled for the indicated compound, i.e., for the non-acetylated and acetylated versions of the indicated peptide.

Data set [5] is described as follows: Function blocking score: total percent inhibition over migration, invasion, inflammation and fibrosis assays divided by number of assays. Format: cell-based. Particulars: total percent inhibition for all assays tested divided by number of assays. The protocol:
As documented in the Examples hereinabove, a variety of cyclized peptides were produced that contained the HA-binding domain 1 (HABD1), HA-binding domain 2 (HABD2), or both HABD1 and HABD2. These peptides were evaluated for helicity, direct HA binding and in a number of cell-based bioassays (effects on migration, invasion, NFkB activation, and TGFβ1 production) that are relevant to inflammation and fibrosis. The relationships amongst helicity, HA-binding, and biofunction were evaluated. Peptides were divided into three groups for this analysis: (1) peptides containing HABD1 (“HABD1”); (2) peptides containing HABD2 (“HABD2”); and peptides containing most or all of HABD1 and all of HABD2 (“HABD1+HABD2”). R^2 values were calculated to quantify the relationships between helicity, HA-binding, and biofunction were evaluated.
The results of this analysis for the HABD1 peptides are shown below in Tables 15 and 16. Table 16 provides a function blocking scores for each of the tested peptides and provides R^2 values showing the relationship between HA binding and helicity (“HA binding vs. CD”), HA binding and function-blocking score (“HA binding vs. FBS”) and helicity vs. function-blocking score (“CD vs. FBS”). The same type of summaries are provided for the HABD2 peptides in Tables 17 and 18 below, and for the HABD1+HABD2 peptides in Tables 19 and 20 below.
Function blocking scores were calculated as the total percent inhibition achieved by the peptide for all assays the peptides were tested in, divided by the number of assays. Assays included migration, invasion, inflammation and fibrosis assays. Not all peptides were tested all of the assays. All peptides were included for deriving R^2 values (Pearson's formula).

The mark [6] stands for this setting: as repeated in tables 16, 18, 20.

The compound `CC[C@H](C)[C@@H]1NC(=O)[C@H](CCCCN)NC(=O)[C@@H](NC(=O)[C@H](CCCCN)NC(=O)[C@H](CC(C)C)NC(=O)[C@H](CC(N)=O)NC(C)=O)CCC(=O)NCCCC[C@@H](C(=O)N[C@H](C(=O)N[C@H](C(=O)N[C@@H](CCCCN)C(=O)N[C@@H](CC(C)C)C(=O)N[C@@H](CCCCN)C(=O)N[C@@H](CC(=O)O)C(=O)N[C@@H](CCC(=O)O)C(N)=O)C(C)C)C(C)C)NC(=O)[C@H](CCCCN)NC1=O` (Ac-NLKEKIKKVVKLKDE-NH2; lactam 4-8) had a helicity in “circular dichroism” of -2460 MRE222.

Compound `CC[C@H](C)[C@@H]1NC(=O)[C@@H](NC(=O)[C@H](CCC(N)=O)NC(=O)[C@H](CCCCN)NC(=O)[C@H](CC(C)C)NC(=O)[C@H](CC(N)=O)NC(C)=O)CCC(=O)NCCCC[C@@H](C(=O)N[C@H](C(=O)N[C@@H](CCCCN)C(=O)N[C@@H](CC(C)C)C(=O)N[C@@H](CCCCN)C(=O)N[C@@H](CC(=O)O)C(=O)N[C@@H](CCC(=O)O)C(N)=O)C(C)C)NC(=O)[C@H](Cc2c[nH]cn2)NC(=O)[C@H](CCCCN)NC1=O` (Ac-NLKQEIKHKVKLKDE-NH2; lactam 5-9) came in with a helicity in “circular dichroism” of -2830 MRE222.

Compound `CC(=O)N[C@@H](CC(N)=O)C(=O)N[C@@H](CC(C)C)C(=O)N[C@@H](CCCCN)C(=O)N[C@@H](CCC(N)=O)C(=O)N[C@@H](CCCCN)C(=O)N[C@H]1CCC(=O)NCCCC[C@@H](C(=O)N[C@@H](CCCCN)C(=O)N[C@@H](CC(C)C)C(=O)N[C@@H](CCCCN)C(=O)N[C@@H](CC(=O)O)C(=O)N[C@@H](CCC(=O)O)C(N)=O)NC(=O)[C@H](C(C)C)NC(=O)[C@H](Cc2c[nH]cn2)NC(=O)[C@H](CCCCN)NC1=O` (Ac-NLKQKEKHVKKLKDE-NH2; lactam 6-10) registered a helicity in the data set “circular dichroism” of -2610 MRE222.

As to `CC[C@H](C)[C@H](NC(=O)[C@H](CCCCN)NC(=O)[C@H](CCC(N)=O)NC(=O)[C@H](CCCCN)NC(=O)[C@H](CC(C)C)NC(=O)[C@H](CC(N)=O)NC(C)=O)C(=O)N[C@H]1CCC(=O)NCCCC[C@@H](C(=O)N[C@@H](CC(C)C)C(=O)N[C@@H](CCCCN)C(=O)N[C@@H](CC(=O)O)C(=O)N[C@@H](CCC(=O)O)C(N)=O)NC(=O)[C@H](C(C)C)NC(=O)[C@H](C(C)C)NC(=O)[C@H](Cc2c[nH]cn2)NC1=O` (Ac-NLKQKIEHVVKLKDE-NH2; lactam 7-11), the helicity in the data set “circular dichroism” is -3850 MRE222.

For `CC[C@H](C)[C@H](NC(=O)[C@H](CCCCN)NC(=O)[C@H](CCC(N)=O)NC(=O)[C@H](CCCCN)NC(=O)[C@H](CC(C)C)NC(=O)[C@H](CC(N)=O)NC(C)=O)C(=O)N[C@@H](CCCCN)C(=O)N[C@H]1CCC(=O)NCCCC[C@@H](C(=O)N[C@@H](CCCCN)C(=O)N[C@@H](CC(=O)O)C(=O)N[C@@H](CCC(=O)O)C(N)=O)NC(=O)[C@H](CCCCN)NC(=O)[C@H](C(C)C)NC(=O)[C@H](C(C)C)NC1=O` (Ac-NLKQKIKEVVKKKDE-NH2; lactam 8-12), the helicity in the data set “circular dichroism” is -1800 MRE222.

In the case of `CC(=O)N[C@H](C(=O)N[C@@H](CO)C(=O)N[C@@H](CCCCN)C(=O)N[C@H]1CCC(=O)NCCCC[C@@H](C(=O)N[C@H](C(=O)N[C@@H](CCCCN)C(=O)N[C@@H](CCCNC(=N)N)C(=O)N[C@@H](CCCCN)C(=O)N[C@@H](CCC(N)=O)C(=O)N[C@@H](CC(N)=O)C(N)=O)C(C)C)NC(=O)[C@H](CCC(N)=O)NC(=O)[C@H](CO)NC(=O)[C@H](CCCNC(=N)N)NC1=O)C(C)C` (Ac-VSKERSQKVKRKQN-NH2; lactam 4-8), the helicity in the data set “circular dichroism” was -3350 MRE222.

On to Ac-NLKQKIKHVVKLKDE-NH2 [Compound 156], for which the “[θ]222/[θ]208 ratio of ellipticities” value in data set [1] ([θ]222/[θ]208 ratio in water, summary tables 15, 17, 19) was found to be 0.11. In addition, the “[θ]222/[θ]208 ratio of ellipticities” value in data set [1] (setting [6]) was found to be 0.11. Also, in data set [1] (in 40% TFE/water), the “[0]222/[0]208 ratio of ellipticities” value came out at 0.74, the “[0]208 mean residue ellipticity” value was -1.03E+04 deg cm^2 dmol^−1 and the “[0]222 mean residue ellipticity” value is listed as -8.57E+03 deg cm^2 dmol^−1. Further, in data set [1] (in water), the “[0]222/[0]208 ratio of ellipticities” value came out at 0.11, the “alpha-helical character by CD (in words)” value is “nominal alpha helical character in water”, the “[0]208 mean residue ellipticity” value is given as -9.00E+02 deg cm^2 dmol^−1 and the “[0]222 mean residue ellipticity” value was -1.01E+02 deg cm^2 dmol^−1. In data set [2] (setting [6]), the HA binding came out at 0.01. For the same compound, the “HA direct binding (OD)” value in data set [2] (optical density, summary tables 15, 17, 19) worked out at 0.01 OD. In data set [3], the “Migration (% inhib.)” value was 0 % inhib. The “Invasion (% inhib.)” value in data set [4] was 0 % inhib. Moreover, the “Function blocking score (FBS)” value in data set [5] came out at 0.
